Measurements: patent US20230279088A1 (NATIONAL RESEARCH COUNCIL OF CANADA, published 2023)

Molecular target: T1, Aβ1-42 oligomers (Aβ1-42 preparation consisting predominantly of higher oligomers) (UniProt P05067 672-713)
T1 construct: domain: Aβ1-42; Oligomeric aggregate; also called Aβ oligomers; Aβ-oligomer
Experiment: ELISA: ABP immobilized on the plate, exposed to Aβ, bound Aβ detected with 6E10 or 4G8
Method: ELISA: Aβ-binding assays were carried out as described by Chakravarthy et al (2013). Maxisorp 96-well ELISA plates (Nunc) were coated with (100-500 ng/well) either free ABP (synthetic) or various FC5-ABP constructs overnight at 4° C. in PBS. The wells were blocked with 1% BSA in TBS-T for 30 min and then incubated with Af31-42 preparations consisting predominantly of either monomer and dimers (Mo) or higher oligomers (010 in TBS-T at RT for 45 min with gentle agitation. Following three TBS-T washes, bound Aβ was detected by incubating HRP-conjugated Aβ-specific antibody (6E10 or 4G8) for 90 min at RT in TBS-T. The bound antibody was detected with SureBlueTM TMB reagent kit (KPL) by colorimetric measurement at 450 nm according to manufacturer's instructions.
A Coomassie blue stained gel after separation of FC5 fusion molecules by SDS-PAGE (NR-non-reducing and R-reducing conditions) indicating successful production of recombinant fusion molecule is shown in FIG. 2A. Free or fused ABP was immobilized on ELISA plate by coating samples in phosphate buffered saline (PBS) overnight at 4° C. and exposed to Aβ preparations as described by Chakravarthy et al., 2013. Bound Aβ was detected with Aβ-specific antibody 6E10 or 4G8 (Chakravarthy et al., 2013). […] Bound Aβ was detected with specific antibody as above. […]

T1 sequence (P05067 672-713 limits assumed): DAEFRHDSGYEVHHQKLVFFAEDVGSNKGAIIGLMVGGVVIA

- binding result: binds
B1: free ABP (synthetic amyloid-binding peptide) (peptide)
peptide: KTFKTRKASAQASLASKDKTPKSKSKKRNSTQLKSRVKNI
notes: also called P4-5 peptide (ABP)
